Measured values: the nanobody polyreactivity screen of Harvey et al. (2022)

test: yeast display, Sf9 membrane polyspecificity reagent, FACS + sequencing; frameworks hold sequencing errors
Summary of the method: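 Using colony PCR, genes from sorted yeast display clones were amplified, then sequenced on MiSeq at 2 × 250 and filtered by CDR length. The clones had been stained with 10% biotinylated, detergent-solubilized Sf9 membrane reagent for 1 hour at 4 °C and sorted by FACS into low and high (top ~1%) gates on anti-HA and streptavidin fluorescence. Polyreactivity labels come from the gate of origin.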

For “QVQLVESGGGLVQAGGSLRLSCAASGSTFYLNAMGWYRQAPGKERELVAAIDYRGGSTYYADSVKGRFTISRDNAKNTVYLQMNSLKPEDTAVYYCNADYVYVHYQPGYYWGQGTQVTVSS”, which “polyreactivity (PSR sort gate)” value is on record?
Its value is “low polyreactivity”.

Which “polyreactivity (PSR sort gate)” value does the source give for “QVQLVESGVGLVQAGGSLRLSCAASGSIFPHYAMGWYRQAPGKERELVAAISSGTSTNYADSVKGRFTISRDNAKNTVYLQMNSLKPEDTAVYFCAADYYSGYDSVDGDYNYWGQGTQVTVSS” here?
The value was “low polyreactivity”.

Which “polyreactivity (PSR sort gate)” value does the source give for “QVQLVESGGGLVQAGGSLRLSCAASGSSFDDKAMGWYRQAPGKERELVASITYRGGSTYYADSVKGRFTISRDHAKNTVNLHIKSLKPEVTAVYYCDKGHYFKYDYWGQGTQVTVSS” here?
Its value is “low polyreactivity”.

Which “polyreactivity (PSR sort gate)” value does the source give for “QVQLVESGGRLVQAGGSLRLSCAASGLILLPNTMGWYRQAPGKESEMVAAISYSGGGTYYADSVKARFTISRDNAKNSVYLQMNSLKPEDTAVYYCAAYVKRESAPYGYWGQGTQVTVSS” here?
Its value is “low polyreactivity”.

With “QVQLVESGGGLVQAGGILRLSCTASGFTLGHYAMGWYRQSPGKERELVAVITSGSSTNYADSVKGRFTISRDNAKNTVYLQMNSLKPEDTAVYYCAAEDQFFKWLYYFWGEGTQVTVSS” as the sequence, how does the “polyreactivity (PSR sort gate)” value read?
Its value is “low polyreactivity”.

Which “polyreactivity (PSR sort gate)” value does the source give for “QVQLVESGGGLVQAGGSLRLSCAASGRIFYGNAMGWYRQAPGKEREWVAAISSGTSTNYADSVKGRFTISRDNAKNTVFLQMNSLKPEDTAVYYCADGSYSRYLYSLYFDFDYWGQGTQVTVSS” here?
The value was “low polyreactivity”.

For “QVQLVESGGGLVQAGGSLRLSCAASGYTFYPYAMGWYRQAPGKERELVAAITTSGGSTYYADSVKGRFTISRDNAKNTVYLQMNSLKPEDTAVYYCARDSLQVFYPYASDDYWGQGTQVTVSS”, which “polyreactivity (PSR sort gate)” value is on record?
The value was “low polyreactivity”.

For “QVQLVESGGGLVQAGGSLRLSCAASGIIIRKYAMGWYRQAPGKERELVAAITTRGSRTYYADSVKGRFTISRDNAKNTVYLQMNSLKPEDTAVYYCAADRYTVRMDYWGQGTQVTVSS”, which “polyreactivity (PSR sort gate)” value is on record?
The value was “high polyreactivity”.

With “QVQLVESGGGLVQAGGSLRLSCAASGRIFVPYTMGWYRQAPGKEWELVAAISRSGGSTYYADSVKGRFTISRDNAKNTVYLQMNSLKPEDTAVYYCAARATNVYSKMDSWGQGTQVTVSS” as the sequence, how does the “polyreactivity (PSR sort gate)” value read?
The value was “high polyreactivity”.

Which “polyreactivity (PSR sort gate)” value does the source give for “QVQLVESGGGLVQAGGSLRLSCAASGIIFPFYAMGWYRQAPGKERELVAAITSGDDTYYADSVKGRFTISRDNAKNTVYLQMNSLKPEVTAVYYCNKRLYIAGYWPQLYYIMDYWGQGTQVTVSS” here?
Its value is “low polyreactivity”.

For “QVQLLESGGGLVQAGGSLRLSCAPSGSTIAWYAMGWYIHAPGKERELVAAITQSGGSTYYADSVKGRFTISRDNEKNTVYLLMIRLKPEDTAVYYCAAYPGYAKYRYDFWGPGTQVTVSS”, which “polyreactivity (PSR sort gate)” value is on record?
The value was “high polyreactivity”.

With “QVQLVESGGGLVQAGGSLRLSCAASGRTFQFYAMGWYRQAPGKERELVAAISSGGSTNYADSVKGRFTISRDNAKNTVYLEMNSLKPEDSAVYYCAKRPWYHADWWDDHWGQGTQVTVSS” as the sequence, how does the “polyreactivity (PSR sort gate)” value read?
Its value is “high polyreactivity”.

With “QVQLVESGGGLVQAGGSLRLSCAASGSTFGRYAMGWYRQAPGKEREFVAGITGRGGSTYYADSVKGRFTISRDNAKNTVYLQMNSLKPEDTAVYYCAAGYRVGYLRAGDYWGQGTQVTVSS” as the sequence, how does the “polyreactivity (PSR sort gate)” value read?
The value was “high polyreactivity”.

For “QVQLVESGGGLVQAGGSLRLSCAASGRIFSTYVMGCYRQAPGKERELVAAITRGGSTNYADSVKGRFTISRDNAKNTVYLQMNSLKPEDTAVYYCNAQRRGTYYLGQGTQVTVSS”, which “polyreactivity (PSR sort gate)” value is on record?
The value was “high polyreactivity”.

With “QVQLVESGGGLVQAGGSLRLSCAASGRIFVKSAMGWYRPAPGQERELVAAITSDGSTSYADSVKGRFTISRDNAKNTVYLQMNSQKPEDTAVYYCAKDFFEHSPVSHTYSSSKYDYWGQGTQVTVSS” as the sequence, how does the “polyreactivity (PSR sort gate)” value read?
The value was “low polyreactivity”.

With “QVQLQESGGGLVQAGGSQRLTCAASGYIFYFQYMGWYRPAPGKEREFVAAISDGANTNYADSVKGRFTISRDNAKNTEYLQMNSLKPEDTAVYYCSVYADENYYYIYWGQGTQVTVSS” as the sequence, how does the “polyreactivity (PSR sort gate)” value read?
Its value is “low polyreactivity”.

Which “polyreactivity (PSR sort gate)” value does the source give for “QVQLVESGGGLVQAGGSLRLSCAASGRTFRANTMGWYRQAPGKERELVAAITWSGASTYYADSVKGRFTISRDNAKNTVYLQMNSLKPEDTAVYYCNAGWDSGIVQSDETVYKYDYWGQGTQVTVSS” here?
The value was “low polyreactivity”.
